What was measured:
[1] = biological target: Very late antigen-4 (VLA-4), alpha4beta1 integrin, on the surface of human reticulocytes and mononuclear leukocytes (human) (UniProt P13612); assay: cell-based or functional assay
[2] = biological target: Very late antigen-4 (VLA-4), alpha4beta1 integrin, on the surface of human reticulocytes and mononuclear leukocytes (human) (UniProt P13612); assay: flow cytometry saturation binding on isolated RBCs from 5 SCD donors
[3] = biological target: Very late antigen-4 (VLA-4), alpha4beta1 integrin, on the surface of human reticulocytes and mononuclear leukocytes (human) (UniProt P13612); assay: flow cytometry saturation binding on isolated RBCs, individual SCD donors
[4] = biological target: Very late antigen-4 (VLA-4), alpha4beta1 integrin, on the surface of human reticulocytes and mononuclear leukocytes (human) (UniProt P13612); assay: flow cytometry saturation binding on isolated RBCs (reticulocytes) from 5 SCD donors, one-site binding analysis
[5] = biological target: T1, Very late antigen-4 (VLA-4), alpha4beta1 integrin, on the surface of human reticulocytes and mononuclear … (human, UniProt P13612 34-1032; P05556 21-798); assay: cell-based or functional assay
[6] = biological target: T1, Very late antigen-4 (VLA-4), …; assay: flow cytometry saturation binding on isolated RBCs (reticulocytes) from 5 SCD donors, one-site binding analysis
Method: Flow cytometry was carried out using the BD FACS Canto II and data analysis was performed with the FACS Diva software. Data for leukocytes was acquired by gating based on forward and side scatter properties and CD45 staining of mononuclear cells. Natalizumab and IgG4 staining of the CD45 positive mononuclear cells were then determined. For erythrocytes, cells were gated for CD235a positive staining and examined for thiazole orange stained reticulocytes. Reticulocyte staining for VLA-4 with either natalizumab or an anti CD29 antibody was then determined and compared to IgG4 or isotype matched control antibody.
Fab arm exchange with endogenous IgG4 in humans, resulting in the production of antibodies that are potentially bispecific (Labrijn AF et al. Nat Biotechnol. 27(8):767-71 2009). This phenomenon has been reported for natalizumab as well, leading to the formation of a monovalent form of the antibody, with only one Fab arm specific for the α-subunit of VLA-4 (Rispens T et al. Anal Biochem. 411(2):271-6 2011; Shapiro RI et al. J Pharm Biomed Anal. 55(1):168-75 2011). To assess the impact of half-antibody exchange of natalizumab on saturation and adhesion of sickle cells, a synthetic monovalent form of natalizumab was used where 1 Fab arm was specific for VLA-4 and the other for CD4. […]

Row | IC50 for inhibition of adhesion of reticulocytes in isolated RBC to VCAM-1 [1] [µg/mL] | fold change of adhesion-inhibition IC50 against the divalent form [1] [fold] | potency in blocking reticulocyte adhesion to VCAM-1 against divalent natalizumab (from IC50) [1] [fold] | fold change of EC50 against the divalent form [2] [fold] | fold change of EC50 against the divalent form [3] [fold] | EC50 [4] [µg/mL] | IC50 for blocking adhesion of whole blood leukocytes to VCAM-1 under flow, adult SCD blood [5] [µg/mL] | IC50 for blocking adhesion of whole blood reticulocytes to VCAM-1 under flow, adult SCD blood [5] [µg/mL] | IC50 for inhibition of adhesion of reticulocytes in isolated RBC to VCAM-1 [5] [µg/mL] | EC50 [6] [µg/mL] | Binder
1 | 0.37 | 19 | 10 | 7 | 1.7 to 12 | 0.89 |  |  |  |  | synthetic monovalent form of natalizumab where 1 Fab arm was specific for VLA-4 and the other for CD4 (bispecific antibody, part only; not given: anti-CD4 arm and constant regions, V domains shown, not shown: another chain or arm of the molecule; a dimerising Fc or GST) VH: QVQLVQSGAEVKKPGASVKVSCKASGFNIKDTYIHWVRQAPGQRLEWMGRIDPANGYTKYDPKFQGRVTITADTSASTAYMELSSLRSEDTAVYYCAREGYYGNYGVYAMDYWGQGTLVTVSS VL: DIQMTQSPSSLSASVGDRVTITCKTSQDINKYMAWYQQTPGKAPRLLIHYTSALQPGIPSRFSGSGSGRDYTFTISSLQPEDIATYYCLQYDNLWTFGQGTKVEIK
2 |  |  |  |  |  |  | 0.05 | 0.02 | 0.02 | 0.14 | Natalizumab (antibody, V domains shown, also called divalent natalizumab; divalent form) VH: QVQLVQSGAEVKKPGASVKVSCKASGFNIKDTYIHWVRQAPGQRLEWMGRIDPANGYTKYDPKFQGRVTITADTSASTAYMELSSLRSEDTAVYYCAREGYYGNYGVYAMDYWGQGTLVTVSS VL: DIQMTQSPSSLSASVGDRVTITCKTSQDINKYMAWYQQTPGKAPRLLIHYTSALQPGIPSRFSGSGSGRDYTFTISSLQPEDIATYYCLQYDNLWTFGQGTKVEIK
